The text below walks through data of publication PMC3298081 (Arteriosclerosis, Thrombosis, and Vascular Biology, 2012).

In this assay the target is thrombospondin-1 (human, UniProt P07996 19-1170). As to the kind of experiment: ELISA.
Chain of thrombospondin-1 (P07996 19-1170): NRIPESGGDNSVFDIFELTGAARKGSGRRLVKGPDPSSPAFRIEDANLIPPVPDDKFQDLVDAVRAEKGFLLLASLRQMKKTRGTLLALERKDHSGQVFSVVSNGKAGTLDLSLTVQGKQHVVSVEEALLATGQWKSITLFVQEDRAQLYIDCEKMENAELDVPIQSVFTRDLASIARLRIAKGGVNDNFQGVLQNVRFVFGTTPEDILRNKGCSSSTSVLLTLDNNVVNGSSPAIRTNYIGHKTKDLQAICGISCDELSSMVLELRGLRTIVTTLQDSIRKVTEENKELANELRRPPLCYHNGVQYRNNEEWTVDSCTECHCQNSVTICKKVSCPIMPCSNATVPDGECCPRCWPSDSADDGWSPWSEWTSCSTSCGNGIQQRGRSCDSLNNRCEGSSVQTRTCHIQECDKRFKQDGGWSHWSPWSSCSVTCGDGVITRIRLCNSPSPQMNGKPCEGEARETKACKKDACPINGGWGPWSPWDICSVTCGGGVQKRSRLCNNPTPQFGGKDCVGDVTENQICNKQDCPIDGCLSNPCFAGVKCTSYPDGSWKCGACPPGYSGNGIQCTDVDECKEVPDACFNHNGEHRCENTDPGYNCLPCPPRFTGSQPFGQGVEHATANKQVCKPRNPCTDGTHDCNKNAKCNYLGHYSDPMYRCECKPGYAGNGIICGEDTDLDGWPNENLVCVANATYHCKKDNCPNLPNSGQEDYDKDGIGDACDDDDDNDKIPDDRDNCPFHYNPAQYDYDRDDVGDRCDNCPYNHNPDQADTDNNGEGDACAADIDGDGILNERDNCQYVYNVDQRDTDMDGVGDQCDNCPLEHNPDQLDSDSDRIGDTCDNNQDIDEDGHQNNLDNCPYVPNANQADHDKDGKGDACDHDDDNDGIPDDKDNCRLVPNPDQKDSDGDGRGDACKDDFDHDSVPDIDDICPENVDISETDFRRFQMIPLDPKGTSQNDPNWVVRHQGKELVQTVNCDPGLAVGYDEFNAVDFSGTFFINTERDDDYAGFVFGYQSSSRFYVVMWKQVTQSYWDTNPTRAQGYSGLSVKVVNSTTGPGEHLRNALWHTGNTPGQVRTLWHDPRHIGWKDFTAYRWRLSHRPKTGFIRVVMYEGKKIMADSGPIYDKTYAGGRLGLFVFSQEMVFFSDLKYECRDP

B1: recombinant thioredoxin/extended CD36 CLESH domain fusion protein (non-phosphorylated) (domain or fragment, human, UniProt P16671 81-120, looked up)
chain: SNIQVKQRGPYTYRVRFLAKENVTQDAEDNTVSFLQPNGA
For the molecule B1, the binding result was “binds”.
